Values of other authors in publication PMC7600996.

Molecular target: RseA (Escherichia coli) (UniProt P0AFX7)
Chain of UniProt P0AFX7 (P0AFX7 whole entry): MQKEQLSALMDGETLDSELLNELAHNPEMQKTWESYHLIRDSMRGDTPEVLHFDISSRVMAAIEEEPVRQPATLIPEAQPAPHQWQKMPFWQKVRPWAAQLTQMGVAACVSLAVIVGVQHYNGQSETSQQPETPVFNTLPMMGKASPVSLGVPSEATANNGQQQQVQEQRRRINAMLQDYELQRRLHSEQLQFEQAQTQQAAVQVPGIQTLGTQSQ

- Kd: 0.2 nM
Substance: RpoE (sigma E) (from UniProt P0AGB6)
